Data on 17 substances can be found in patent US9012398B2.

The target in the assay is human GLP-1 receptor (human) (UniProt P43220).

In turn, “N-ε^27-{2-(2-(2-(2-[2-(2-(4-(hexadecanoylamino)-4(S)- carboxybutyrylamino)ethoxy)ethoxy)acetylamino)ethoxy)ethoxy)acetyl} [Leu^14,28,Lys^27]Exendin-4(1-39)amide (from UniProt P26349) (peptide)” came in with a GLP1cAMPma (3693) [EC50 (nM)] Mean Value of 0.19 nM. “N-ε^20-[2-(2-[2-(2-[2-(2-[4-(hexadecanoylamino)-4(S)- carboxybutyrylamino]ethoxy)ethoxy]acetylamino)ethoxy]ethoxy)acetyl] [Imidazoylpropionyl^1,Lys^20,Gln^28]Exendin-4-(1-39)-amide (from UniProt P26349) (peptide)” yielded a GLP1cAMPma (3693) [EC50 (nM)] Mean Value of 0.042 nM. Take “N-epsilon20-{2-(2-(2-(2-[2-(2-(4-(hexadecanoylamino)-4-(S)- carboxybutyrylamino)ethoxy)ethoxy]acetyl)ethoxy)ethoxy)acetyl)}- [[Aib2,Lys20,Gln28]Exendin-4-amide (from UniProt P26349) (peptide)”: the GLP1cAMPma (3693) [EC50 (nM)] Mean Value stood at 0.0095 nM. With “N-ε^34-(2-(2-(2-(17-carboxyheptadecanoylamino)ethoxy)ethoxy)acetyl) [Leu^14,Arg^12,27,Lys^34]Exendin-4(1-39)amide (from UniProt P26349) (peptide)”, the GLP1cAMPma (3693) [EC50 (nM)] Mean Value was found to be 0.44 nM. The substance “N-ε^14-(2-(2-(2-(2-(2-(2-(17- carboxyheptadecanoylamino)ethoxy)ethoxy)acetylamino)ethoxy) ethoxy)acetyl[Arg^12,Lys^14,Val^27,Arg^28]Exendin-4-(1-39)-amide (from UniProt P26349) (peptide)” returned a GLP1cAMPma (3693) [EC50 (nM)] Mean Value of 3.65 nM. For “N-ε^20-[2-(2-[2-(2-[2-(2-[4-Octadecanoylamino-4(S)- carboxybutyrylamino]ethoxy)ethoxy]acetylamino)ethoxy]ethoxy)acetyl] [Arg^12,27,Gln^28,Leu^14,Lys^20 Exendin-4(1-39)amide (from UniProt P26349) (peptide)”, the GLP1cAMPma (3693) [EC50 (nM)] Mean Value is 0.044 nM. On to “N-ε^27-(2-(2-(2-(2-(2-(2-(17- carboxyheptadecanoylamino)ethoxy)ethoxy)acetylamino)ethoxy) ethoxy)acetyl[Arg^12,Leu^14,Lys^27,Ala^29]Exendin-4-(1-39)-amide (from UniProt P26349) (peptide)”, for which the GLP1cAMPma (3693) [EC50 (nM)] Mean Value was 5.6 nM. “N-ε^20-{2-(2-(2-(2-[2-(2-(4-(hexadecanoylamino)-4- carboxybutyrylamino)ethoxy)ethoxy]acetylamino)ethoxy)ethoxy)acetyl)}- [Gln^12,Leu^14,Gln^28,Lys^20]Exendin-4-amide (from UniProt P26349) (peptide)” displayed a GLP1cAMPma (3693) [EC50 (nM)] Mean Value of 0.021 nM. For the substance “N-ε^12-[2-(2-[2-(2-[2-(2-[4-(hexadecanoylamino)-4(S)- carboxybutyrylamino]ethoxy)ethoxy]acetylamino)ethoxy]ethoxy)acetyl] [Lys^12,Leu^14,Arg^27,Gln^28]Exendin-4-(1-39)-amide (from UniProt P26349) (peptide)”, the GLP1cAMPma (3693) [EC50 (nM)] Mean Value was 0.006 nM.

Substance “N-ε^12-(2-(2-(2-(2-(2-(2-(2-(2-(2-Octadecanoylamino) ethoxy)ethoxy)acetylamino)ethoxy)ethoxy)acetylamino)ethoxy)ethoxy)acetyl)) [Lys^12,Leu^14,Arg^27,Gln^28]Exendin-4-(1-39)-amide (from UniProt P26349) (peptide)” had a GLP1cAMPma (3693) [EC50 (nM)] Mean Value of 0.0035 nM. In the case of “N-ε^27-2-(2-2-(2-(2-(2-(2-(2-(2- (Octadecanoylamino)ethoxy)ethoxy)acetylamino)ethoxy)ethoxy)acetyl- amino)ethoxy)ethoxy)acetyl[Arg^12,Leu^14,Lys^27,Leu^28]Exendin-4- (1-39)-amide (from UniProt P26349) (peptide)”, the GLP1cAMPma (3693) [EC50 (nM)] Mean Value turned out to be 0.049 nM. In the case of “N-ε^20-(2-(2-(2-(2-(2-(2-(2-(2-(2- (Octadecanoylamino)ethoxy)ethoxy)acetylamino)ethoxy)ethoxy)acetyl- amino)ethoxy)ethoxy)acety))[Arg^12,27,28,Leu^14,Lys^20 Exendin-4(1- 39)amide (from UniProt P26349) (peptide)” it was 0.007 nM. The substance “N-ε^27-(2-(2-(2-(2-(2-(2-(17- carboxyheptadecanoylamino)ethoxy)ethoxy)acetylamino)ethoxy) ethoxy)acetyl)[Leu^14,Arg^12,Lys^27]Exendin-4(1-39)amide (from UniProt P26349) (peptide)” registered a GLP1cAMPma (3693) [EC50 (nM)] Mean Value of 0.35 nM. As for “N-ε^20-[2-(2-[2-(2-[2-(2-[4-(17-Carboxyheptadecanoylamino)-4(S)- carboxybutyrylamino]ethoxy)ethoxy]acetylamino)ethoxy]ethoxy)acetyl] [Imidazoylpropionyl^1;Gin^28,Lys^20]exendin-4(1-39)amide (from UniProt P26349) (peptide)”, the GLP1cAMPma (3693) [EC50 (nM)] Mean Value came to 2.18 nM. In the case of “N-ε^27-[2-(2-[2-(2-[2-(2-[4-hexadecanoylamino-4(S)- carboxybutyrylamino]ethoxy)ethoxy]acetylamino)ethoxy]ethoxy)acetyl] [Arg^12,Leu^14,Lys^27,Ala^29]Exendin-4-(1-39)-amide (from UniProt P26349) (peptide)” it was 0.15 nM; in that of “N-ε^20-{2-(2-(2-(2-[2-(2-(4-(hexadecanoylamino)-4- carboxybutyrylamino)ethoxy)ethoxy]acetyl)ethoxy)ethoxy)acetyl)}- [Gln^12,27,Leu^14,Lys^20,Gln^28]Exendin-4-amide (from UniProt P26349) (peptide)”, 0.027 nM; in that of “N-ε^20-2-(2-(2-(2-(2-(2-(4-(Hexadecanoylamino)-4(S)- carboxybutyrylamino)ethoxy)ethoxy)acetylamino)ethoxy) ethoxy)acetyl[Arg^12,27,Leu^14,Lys^20,Gln^28]Exendin-4-(1-39)-peptide amide (from UniProt P26349)”, 0.033 nM.
